The results in this text go back to US20050074863A1, “T-cell epitodes in carboxypeptidase g2” (priority 2001, published 2005).

This test relates to human T-cells. Nature of the test: Human PBMC in vitro proliferation assay with wild-type or modified CPG2 protein. Format: cell-based. The protocol: A modified protein was prepared according to the method of examples 3-5. The modified protein contained multiple substitutions from the wild-type sequence. Positive control protein was wild-type CPG2.
For T cell proliferation assays 4×10^6 PBMC (per well) from healthy donors were incubated with unmodified and modified […] in 2 ml bulk cultures (in 24 well plates). Each donor culture was treated with modified and unmodified CPG2 at 5 and 50 μg/ml. In addition an untreated control bulk culture was maintained enabling stimulation indexes to be determined. At days 5, 6, 7 and 8 cells for each bulk culture were gently agitated and 50 μl samples removed in triplicate for determination of the proliferation index. The 50 μl sample aliquots were each transferred to 3 wells of a U-bottom 96 well plate. Fresh AIM V media (130 μl) was added to each of the 96 wells. Cells were pulsed (for 18-21 hours) with 1 μCi [^3H]Thymidine per well diluted in a total volume of 20 ul AIM V media. The total volume for each culture was 200 μl. CPM values were collected using a beta-plate reader and the stimulation index for each time point determined as per Example 2.
The SI was plotted for each time point and treatment.

B1: carboxypeptidase G2 (protein, UniProt P06621 23-415, looked up)
Carboxypeptidase G2: ALAQKRDNVLFQAATDEQPAVIKTLEKLVNIETGTGDAEGIAAAGNFLEAELKNLGFTVTRSKSAGLVVGDNIVGKIKGRGGKNLLLMSHMDTVYLKGILAKAPFRVEGDKAYGPGIADDKGGNAVILHTLKLLKEYGVRDYGTITVLFNTDEEKGSFGSRDLIQEEAKLADYVLSFEPTSAGDEKLSLGTSGIAYVQVNITGKASHAGAAPELGVNALVEASDLVLRTMNIDDKAKNLRFNWTIAKAGNVSNIIPASATLNADVRYARNEDFDAAMKTLEERAQQKKLPEADVKVIVTRGRPAFNAGEGGKKLVDKAVAYYKEAGGTLGVEERTGGGTDAAYAALSGKPVIESLGLPGFGYHSDKAEYVDISAIPRRLYMAARLIMDLGAGK
modifications: 6xHis tag
notes: bacterial enzyme from Pseudomonas sp. strain RS-16, 390 residues, recombinant 6xHis tagged; positive control protein
As for B1, the “proliferative response (stimulation index) to whole protein” value (responsive donors #1 and #16, 5 and 50 μg/ml, days 5-8, 3H-thymidine) was “significant proliferative response”. Besides, where the note is “responsive donors, 5 and 50 μg/ml”, the “time of peak proliferative response” value came to 7 days.
